Reference: patent CN107674122A (TIANJIN TIMMUNE BIOTECH INC, dated 2018)

How the values were obtained:
[1] = target: T1, 人血清白蛋白 (human serum albumin) (human, UniProt P02768 25-609); assay: phage ELISA, HSA coated, A650
T1 construct: also called HSA

[2] = target: IgG (coated control antigen); assay: phage ELISA, IgG coated, A650
[3] = target: T1, 人血清白蛋白 (human serum albumin); assay: ELISA, HSA coated, A650
[4] = target: T2, 牛血清白蛋白 (bovine serum albumin) (bovine, UniProt P02769 25-607); assay: ELISA, antigen coated, purified HF11-FC, A650
T2 construct: also called BSA
T2 sequence (P02769 25-607 limits assumed): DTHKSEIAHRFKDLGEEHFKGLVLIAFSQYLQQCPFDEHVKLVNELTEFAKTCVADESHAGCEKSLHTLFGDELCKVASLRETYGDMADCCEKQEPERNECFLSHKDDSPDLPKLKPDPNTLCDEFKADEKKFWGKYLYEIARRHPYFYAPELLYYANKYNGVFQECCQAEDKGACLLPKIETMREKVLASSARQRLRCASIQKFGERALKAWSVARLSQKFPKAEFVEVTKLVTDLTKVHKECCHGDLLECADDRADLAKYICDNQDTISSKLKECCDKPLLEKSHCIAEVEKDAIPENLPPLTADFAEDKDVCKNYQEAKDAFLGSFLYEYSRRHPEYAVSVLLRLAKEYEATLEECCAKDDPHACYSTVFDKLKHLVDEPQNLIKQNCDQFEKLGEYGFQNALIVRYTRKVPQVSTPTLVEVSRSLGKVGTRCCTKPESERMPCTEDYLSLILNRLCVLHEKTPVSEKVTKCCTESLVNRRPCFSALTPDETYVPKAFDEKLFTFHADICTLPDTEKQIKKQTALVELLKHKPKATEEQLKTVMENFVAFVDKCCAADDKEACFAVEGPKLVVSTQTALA

T1 sequence (P02768 25-609 limits assumed): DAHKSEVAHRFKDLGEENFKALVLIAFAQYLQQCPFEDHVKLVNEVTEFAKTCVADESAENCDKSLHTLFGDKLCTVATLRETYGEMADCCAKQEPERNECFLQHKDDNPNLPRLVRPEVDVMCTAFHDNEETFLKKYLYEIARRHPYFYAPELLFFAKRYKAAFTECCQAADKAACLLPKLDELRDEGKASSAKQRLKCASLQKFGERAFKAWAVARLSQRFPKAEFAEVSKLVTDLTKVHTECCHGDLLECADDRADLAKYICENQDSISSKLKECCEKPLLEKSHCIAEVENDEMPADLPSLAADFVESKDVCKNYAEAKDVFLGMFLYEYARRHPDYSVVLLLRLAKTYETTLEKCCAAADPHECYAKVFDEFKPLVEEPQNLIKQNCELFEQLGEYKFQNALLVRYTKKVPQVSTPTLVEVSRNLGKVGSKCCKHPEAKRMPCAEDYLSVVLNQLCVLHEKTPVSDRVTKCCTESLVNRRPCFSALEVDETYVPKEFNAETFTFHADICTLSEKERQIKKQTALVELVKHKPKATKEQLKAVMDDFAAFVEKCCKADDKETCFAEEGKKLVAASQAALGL

Binder | binding result [1] | A650 [2] | binding result [3] | binding result [4]
HB5 单域抗体 (phage-displayed clone, culture supernatant) (VHH, Human heavy-chain single domain antibody on a DP47 framework; Tested in ELISA as phage in culture supernatant, detected with an HRP-labelled anti-phage antibody; not shown: Myc and VSV-G tags and phage GIII protein of display vector pBG3) VHH: QVQLLESGGGLVQPGGSLRLSCAASGVKAINHTMGWVRQAPGKGLEWVSAIRTPDGSTYYADSVKGRFTISRDNSKNTLYLQMNSLRAEDTAVYYCASVGDNAGSSSPPFASWGQGTLVTVSS | binds | ≤ 0.3 A650 | – | –
HF11 单域抗体 (phage-displayed clone, culture supernatant) (VHH, Human heavy-chain single domain antibody on a DP47 framework; Tested in ELISA as phage in culture supernatant; not shown: Myc and VSV-G tags and phage GIII protein of display vector pBG3) VHH: QVQLLESGGGLVQPGGSLRLSCAASGVKISYESMAWVRQAPGKGLEWVSSILMQNGSTYYADSVKGRFTISRDNSKNTLYLQMNSLRAEDTAVYYCATTRVRRPANMKYWGQGTLVTVSS | – | ≤ 0.3 A650 | – | –
融合蛋白HF11-FC (expressed from pcDNA3.1 in 293F cells) (Fc fusion, The secreted protein was purified on Protein A; not shown: human Fc; residues encoded by the BamHI site between the single domain antibody and Fc; no) QVQLLESGGGLVQPGGSLRLSCAASGVKISYESMAWVRQAPGKGLEWVSSILMQNGSTYYADSVKGRFTISRDNSKNTLYLQMNSLRAEDTAVYYCATTRVRRPANMKYWGQGTLVTVSS | – | – | binds | no binding
HE9 单域抗体 (phage-displayed clone, culture supernatant) (VHH, Human heavy-chain single domain antibody on a DP47 framework; Tested in ELISA as phage in culture supernatant; not shown: Myc and VSV-G tags and phage GIII protein of display vector pBG3) VHH: QVQLLESGGGLVQPGGSLRLSCAASGFMVTSEIMGWVRQAPGKGLEWVSTIVANNGSTYYADSVKGRFTISRDNSKNTLYLQMNSLRAEDTAVYYCASPPRRTGVDGTESMHFWGQGTLVTVSS | binds | ≤ 0.3 A650 | – | –
